Reference: FireProtDB (doi:10.1371/journal.pone.0064824)
Several values for one entry are separate records, joined by “and”; a condition that tells them apart may be missing. Identical values can stand only once.

Settings: Homo sapiens, pH 7.5, Tris-HCl 20mM; for denaturant m value / unfolding free energy / ddG of mutation (higher = less stable): 10 °C, Urea; for Tm: Thermal
[1] = CD, transition: 2, structure 1XWS

Serine/threonine-protein kinase pim-1 wild type, P11309, sequence (P11309 whole entry): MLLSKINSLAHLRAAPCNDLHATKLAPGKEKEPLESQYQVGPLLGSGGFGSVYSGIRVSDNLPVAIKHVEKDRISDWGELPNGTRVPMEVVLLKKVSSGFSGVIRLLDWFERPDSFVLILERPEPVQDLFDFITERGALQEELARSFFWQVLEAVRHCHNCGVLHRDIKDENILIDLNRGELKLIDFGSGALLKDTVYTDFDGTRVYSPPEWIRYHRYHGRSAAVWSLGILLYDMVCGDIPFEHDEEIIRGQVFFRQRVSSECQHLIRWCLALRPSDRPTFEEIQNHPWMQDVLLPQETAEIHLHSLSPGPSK
Serine/threonine-protein kinase pim-1 E135K, P11309, sequence (P11309 whole entry E135K): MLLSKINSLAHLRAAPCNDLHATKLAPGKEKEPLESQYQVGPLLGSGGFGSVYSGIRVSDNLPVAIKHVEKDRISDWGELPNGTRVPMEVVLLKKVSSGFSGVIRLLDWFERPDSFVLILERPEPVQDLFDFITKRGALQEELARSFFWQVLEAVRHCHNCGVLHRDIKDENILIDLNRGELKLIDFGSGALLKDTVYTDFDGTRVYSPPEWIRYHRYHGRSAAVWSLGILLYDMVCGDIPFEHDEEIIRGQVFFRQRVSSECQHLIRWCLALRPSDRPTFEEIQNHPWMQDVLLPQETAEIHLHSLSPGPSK
Serine/threonine-protein kinase pim-1 E124Q, P11309, sequence (P11309 whole entry E124Q): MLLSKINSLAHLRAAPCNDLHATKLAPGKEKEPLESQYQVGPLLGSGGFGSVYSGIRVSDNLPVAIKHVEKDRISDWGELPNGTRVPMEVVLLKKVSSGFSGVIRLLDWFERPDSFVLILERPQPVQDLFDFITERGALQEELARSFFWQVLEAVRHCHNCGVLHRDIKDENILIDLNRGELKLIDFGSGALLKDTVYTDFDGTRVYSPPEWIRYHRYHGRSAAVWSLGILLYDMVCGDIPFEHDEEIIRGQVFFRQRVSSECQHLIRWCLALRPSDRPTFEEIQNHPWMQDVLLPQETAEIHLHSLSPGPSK
Serine/threonine-protein kinase pim-1 E142D, P11309, sequence (P11309 whole entry E142D): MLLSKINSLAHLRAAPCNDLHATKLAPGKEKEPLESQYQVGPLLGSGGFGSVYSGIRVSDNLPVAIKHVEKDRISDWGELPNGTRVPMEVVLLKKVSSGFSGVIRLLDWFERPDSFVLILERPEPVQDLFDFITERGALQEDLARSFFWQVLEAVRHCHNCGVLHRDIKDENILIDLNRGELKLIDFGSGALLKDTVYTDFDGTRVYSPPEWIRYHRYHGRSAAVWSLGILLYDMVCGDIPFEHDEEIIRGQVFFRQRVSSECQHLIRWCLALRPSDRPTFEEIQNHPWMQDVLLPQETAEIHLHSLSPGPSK
Serine/threonine-protein kinase pim-1 Y53H, P11309, sequence (P11309 whole entry Y53H): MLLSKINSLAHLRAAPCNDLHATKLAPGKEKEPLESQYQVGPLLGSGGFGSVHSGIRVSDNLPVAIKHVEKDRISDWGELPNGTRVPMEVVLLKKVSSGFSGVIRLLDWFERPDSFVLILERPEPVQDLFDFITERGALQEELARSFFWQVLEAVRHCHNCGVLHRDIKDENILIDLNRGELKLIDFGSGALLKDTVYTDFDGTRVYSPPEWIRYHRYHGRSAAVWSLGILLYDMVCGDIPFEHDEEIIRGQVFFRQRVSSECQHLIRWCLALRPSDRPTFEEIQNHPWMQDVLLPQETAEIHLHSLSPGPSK

Substance	denaturant m value (CD, transition: 2) [kcal/mol/M]	unfolding free energy (CD, transition: 2) [kcal/mol]	Tm (CD, transition: 3) [°C]	ddG of mutation (higher = less stable) [1] [kcal/mol]	denaturant m value [1] [kcal/mol/M]	unfolding free energy [1] [kcal/mol]	Tm [1] [°C]	unfolding free energy (Fluorescence, transition: 4, structure 1XWS)
Serine/threonine-protein kinase pim-1 wild type, P11309	1.2	6.41	40.5					
Serine/threonine-protein kinase pim-1 Y53H, P11309				3.3	0.62	3.11		
Serine/threonine-protein kinase pim-1 E135K, P11309				4.59	0.43	1.82	40.5	
Serine/threonine-protein kinase pim-1 E142D, P11309				3.22	0.69	3.19	40	
Serine/threonine-protein kinase pim-1 E124Q, P11309							44	3.46 kcal/mol and 3.08 kcal/mol and 5.22 kcal/mol
